{
  "source": "paper PMC6749330",
  "about": "“Novel Peptide NIRF Optical Surgical Navigation Agents for HNSCC” (Molecules, 2019)",
  "key": {"[1]": {"assay": "In vitro serum stability", "conditions": "nu/nu, mouse"}, "[2]": {"assay": "HPLC Rt as measure of relative lipophilicity", "conditions": "chromatographic, C18 RP (XBridge 150 × 4.6 mm, 3.5 μm), water/ACN 0.1% TFA, 20 to 50% ACN up to 10 min, 50 to 70% from 10 to 30 min, 1 mL/min, NIRF detection"}, "[3]": {"tested_on": "FBS (fetal bovine serum) proteins", "assay": "FBS protein binding assay", "conditions": "25 μM in 100% FBS, room temperature 30 s, Amicon 10 K cutoff, 12,000 g 15 min, fluorescence, p < 0.05", "protocol": "FBS protein binding assay. […] The concentration was chosen as the maximum expected in blood from an intravenous imaging dose of 40 nmol in a 20 g mouse, with a blood factor of 0.078 [40, 41]. Solutions (300 μL) were then loaded into an Amicon unit (0.5 mL, 10 K cutoff) and centrifuged at 12,000× g for 15 min [28]. Samples from the filtrate (50 μL), residual (5 μL), and original solution (5 μL) were loaded in duplicate into black wall 96-well plates containing 50 (for filtrate) or 95 (for residual and original) μL of PBS with 0.2% BSA. For an additional wash, 300 μL of PBS was then added into the Amicon unit. The unit was centrifuged as above. The same amounts of each of the parts were loaded into wells. Fluorescence intensity for each fraction was calculated by fraction volume × fluorescent unit/μL. Single factor ANOVA was used to analyze the data with p < 0.05 considered significant."}, "[4]": {"tested_on": "Cal 27 cells", "assay": "Fluorescence microscopy assay on Cal 27 cells", "format": "cell-based, Human", "conditions": "10 μM, 1 h and 24 h incubations, 37 °C, 800 nm emission", "description": "Fluorescence microscopy assays. Cal 27 cells were seeded at 70,000/well in duplicate on eight-well chamber slides and allowed to attach overnight. Cell culture medium was replaced with 200 μL medium containing 10 μM peptides. Cells were incubated at 37 °C for 1–24 h followed by washing four times with 300 μL of HEPES buffer (25 mM HEPES 150 mM NaCl at pH 7.4) and once with the buffer containing 1 μg/mL DAPI. The chamber slide scaffold was then removed. Each chamber was then covered by a drop of aqua-poly mount and a coverslip, and sealed with clear nail polish. Cells were imaged with an Olympus IX81 microscope using an 800 nm emission filter set for IRDye800 conjugates and 461 nm for DAPI. Images were captured at 800 nm (red) for 5 s and at 461 nm (blue) with the automatic settings, at 200×. […]\nthe measured fluorescence.\nThe ratio of uptake at 2 h drops to about 13. Note:\nFigure 2 data are normalized to fHN-1-IR800 that was run adjacent to each of the hybrid-peptides. f-HN1- […]\nvertical scale magnitude of 4IphfHN17-IR800 between Figure 2 at ~4.5 and Figure S3 at ~13.\nFigure S4.Fluorescence microscopy of 1 h and 24 h incubations of 10 µM IR800-labeled hybrid-peptides in […]\nCal 27 cells. […] HN1-IR800, HNJ-\nFigure S5. Blood clearance of hybrid-peptide molecules from normal mice as described in Materials and Methods. […]"}},
  "note": "Where a SMILES comes first, the peptide text is derived from it. The star is where a group is joined. IRDye800CW = CC1(C)C(/C=C/C2=C(Oc3ccc(S(=O)(=O)O)cc3)C(=C/C=C3/N(CCCCS(=O)(=O)O)c4ccc(S(=O)(=O)O)cc4C3(C)C)/CCC2)=[N+](CCCCCC(=O)*)c2ccc(S(=O)(=O)[O-])cc21",
  "data": [
    {"smiles": "CC[C@H](C)[C@H](NC(=O)[C@H](CC(N)=O)NC(=O)[C@H](CC(C)C)NC(=O)[C@@H]1CCCN1C(=O)[C@H](CO)NC(=O)[C@@H](N)[C@@H](C)O)C(=O)N[C@@H](Cc1c[nH]cn1)C(=O)N[C@@H](CC(N)=O)C(=O)NCC(=O)N[C@@H](CCC(N)=O)C(=O)N[C@@H](CCCCNC(=O)CCCCC[N+]1=C(/C=C/C2=C(Oc3ccc(S(=O)(=O)O)cc3)C(=C/C=C3/N(CCCCS(=O)(=O)O)c4ccc(S(=O)(=O)O)cc4C3(C)C)/CCC2)C(C)(C)c2cc(S(=O)(=O)[O-])ccc21)C(=O)N[C@@H](CC(C)C)C(N)=O", "note": "[HN1-IR800] (H-TSPLNIHNGQK(IRDye800CW)L-NH2)", "values": [
      {"measurement": "half-life at 6.4 μM", "setting": "[1]", "value": 50.4, "unit": "min"},
      {"measurement": "HPLC Rt (relative lipophilicity)", "setting": "[2]", "value": 7.31, "unit": "min"},
      {"measurement": "peptide bound to FBS proteins", "setting": "[3]", "value": "~52", "unit": "%"}
    ]},
    {"smiles": "CC1(C)C(/C=C/C2=C(Oc3ccc(S(=O)(=O)O)cc3)C(=C/C=C3/N(CCCCS(=O)(=O)O)c4ccc(S(=O)(=O)[O-])cc4C3(C)C)/CCC2)=[N+](CCCCCC(=O)O)c2ccc(S(=O)(=O)O)cc21", "note": "[IR800-COOH]", "values": [
      {"measurement": "Uptake in Cal 27 cells by fluorescence microscopy", "setting": "[4]", "value": "not observably taken up"}
    ]}
  ]
}
